To fix the notation:
B1: full-length antibody 3-1B11 (antibody, human IgG1, V domains shown)
VH: EVQLVESGGGLVQPGGSLRLSCAASGFTFSDYDMIWVRQAPGKGLEWVAVISYDGSNKYYADSVKGRFTISRDNSKNTLYLQMNSLRAEDTAVYYCAKEFFGAFDIWGQGTMVTVSS
VL: SSELTQDPAVSVALGQTVTITCQGDSLNYYYANWFQLKPGQAPVLVLFGKNNRPSGIPDRFSGSYSGSTASLTITGAQAEDDADYYCNSRDSGGNPWVFGGGTKLTVL
notes: Tested as a full-length antibody; the summary speaks of human IgG1
B2: full-length antibody 4-1E8 (antibody, human IgG1, V domains shown)
VH: QIQLVQSGAEVKMPGASVTISCEASGYNFISYYIHWVRQAPGQGLEWMGFVVPSGGAAGYTQKFQGRLTVTRDTSTSTVYMDLNSLTSDDTAVYYCVREMSGGWFDFWGQGTLVTVSS
VL: DIVMTQSPSSLSASVGDRVTITCRASQGIRNDLGWYQQKPGKAPKLLIYAASTLQSGVPSRFSGSGSGTDFTLTISSLQAEDVAVYYCQQYYSTPLTFGPGTKVDIK
notes: Tested as a full-length antibody made from the scFv's VH and VL in 293T cells; the summary speaks of a human IgG1 constant region, and ADCC activity is reported
B3: full-length antibody 3-1E4 (antibody, human IgG1, V domains shown)
VH: QIQLVQSGAEVKKPGSSVKVSCKASGGTFSSYAISWVRQAPGQGLEWMGGIIPIFGTANYAQKFQGRVTITADKSTSTAYMELSSLRSEDTAVYYCAGGGAVADNSYWGQGTLVTVSS
VL: DIRMTQSPSSLSASVGDRVTITCRASQGIRNDLGWYQQKPGKAPKLLIYAASSLQSGVPSRFSGSGSGTDFTLTISSLQPEDFATYYCLQDYNYPRTFGQGTKVEIK
notes: as for B1

The first test has as its target T1, Rhesus PDL1 (expression construct transiently transfected into 293T cells) (Rhesus, UniProt F6VEW6 19-290).
T1 construct: whole, on cells
Put plainly: FACS on 293T cells transiently transfected with Rhesus PDL1. On the procedure:
(B) 293T cells were transiently transfected with Rhesus PDL1 expression construct. Embodiments 4-1E8, 3-1E4 and 3-1B11 were tested and compared to control.
B1: the binding result is “binds”.
Still for that read-out and setting: in the case of B2 it was “binds”; in that of B3, “binds”.

Another test deals with T2, Rhesus PDL1-GFP (expression construct transiently transfected into 293T cells) (Rhesus, UniProt F6VEW6 19-290).
T2 construct: whole, on cells; not shown: GFP fused to PDL1
T2 sequence (chain, as listed by the source): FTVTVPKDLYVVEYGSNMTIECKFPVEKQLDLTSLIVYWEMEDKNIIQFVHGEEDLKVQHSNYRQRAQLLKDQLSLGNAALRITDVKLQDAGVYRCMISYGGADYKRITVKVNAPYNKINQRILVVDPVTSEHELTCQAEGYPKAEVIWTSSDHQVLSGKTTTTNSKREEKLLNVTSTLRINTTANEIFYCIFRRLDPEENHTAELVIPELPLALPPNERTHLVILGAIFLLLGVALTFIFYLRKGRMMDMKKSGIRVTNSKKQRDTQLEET
Put plainly: FACS on 293T cells transiently transfected with Rhesus PDL1-GFP. How it is done:
(A) 293T cells were transiently transfected with Rhesus PDL1-GFP expression construct. Embodiments 4-1E8, 3-1E4 and 3-1B11 were tested and compared to control.
B1: the binding result is “binds”.
B2: the binding result was “binds”.
B3: the binding result is given as “binds”.

For the origin of these results see patent US20210332138A1 (1GLOBE BIOMEDICAL, published 2021).
